From paper PMC12440807

Molecular target: RNA polymerase II;RECQL5 (Sus scrofa domesticus?;Homo sapiens, UniProt A0A8D1DPV6;A0A0B8RVL1;P19387;O15514;I3LSI7;P61218;P62487;P52434;P36954;P52435;P6 …, |)
Test: cryo-EM; phosphorylated Pol II; 2.8 A; Mg, Zn in model
Settings: protein: native;recombinant; tags: none;His6-MBP, TEV-cleaved; copies: 1;1;1;1;1;1;1;1;1;1;1;1;1

Chain of RNA polymerase II;RECQL5 (O94762 whole entry, one chain of several): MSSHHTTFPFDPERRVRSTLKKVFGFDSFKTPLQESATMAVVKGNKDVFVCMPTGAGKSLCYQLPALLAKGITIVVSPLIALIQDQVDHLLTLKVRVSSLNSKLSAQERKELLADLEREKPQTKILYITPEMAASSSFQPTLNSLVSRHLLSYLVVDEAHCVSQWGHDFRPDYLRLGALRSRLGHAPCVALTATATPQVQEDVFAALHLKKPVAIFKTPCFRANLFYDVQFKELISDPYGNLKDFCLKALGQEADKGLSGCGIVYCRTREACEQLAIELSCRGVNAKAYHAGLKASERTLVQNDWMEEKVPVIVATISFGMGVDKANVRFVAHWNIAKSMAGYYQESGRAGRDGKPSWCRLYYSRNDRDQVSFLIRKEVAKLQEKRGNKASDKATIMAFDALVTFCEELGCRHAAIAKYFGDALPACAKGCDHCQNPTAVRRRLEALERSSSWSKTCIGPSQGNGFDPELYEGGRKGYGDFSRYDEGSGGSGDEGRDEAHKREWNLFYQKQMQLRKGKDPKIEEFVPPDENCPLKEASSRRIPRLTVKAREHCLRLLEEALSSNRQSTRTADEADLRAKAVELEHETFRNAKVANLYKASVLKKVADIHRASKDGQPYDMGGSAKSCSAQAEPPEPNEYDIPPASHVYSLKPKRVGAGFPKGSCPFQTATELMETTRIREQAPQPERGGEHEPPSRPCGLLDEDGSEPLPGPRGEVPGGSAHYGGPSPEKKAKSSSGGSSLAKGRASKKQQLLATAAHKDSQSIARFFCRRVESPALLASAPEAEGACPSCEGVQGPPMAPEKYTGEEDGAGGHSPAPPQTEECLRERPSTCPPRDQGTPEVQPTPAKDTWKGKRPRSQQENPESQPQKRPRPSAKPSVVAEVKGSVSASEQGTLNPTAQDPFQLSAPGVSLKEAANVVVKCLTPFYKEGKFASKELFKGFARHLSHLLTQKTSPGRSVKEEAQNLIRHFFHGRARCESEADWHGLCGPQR

B1: EC DNA-RNA scaffold (mixed)
DNA 1: GCTCCCAGCTCCCTGCTGGCTCCGAGTGGGTTCTGCCGCTCTCAATGG
DNA 2: CCATTGAGAGCGGCCCTTGTGTTCAGGAGCCAGCAGGGAGCTGGGAGC
RNA: GAGAGGGAACCCACU
Q: Does B1 bind?
A: binds
